The source of these data is FireProtDB (doi:10.1006/jmbi.1995.0174).

The labels stand for the following.
B1: Anionic trypsin wild type, Q29463 (protein)
chain: MHPLLILAFVGAAVAFPSDDDDKIVGGYTCAENSVPYQVSLNAGYHFCGGSLINDQWVVSAAHCYQYHIQVRLGEYNIDVLEGGEQFIDASKIIRHPKYSSWTLDNDILLIKLSTPAVINARVSTLLLPSACASAGTECLISGWGNTLSSGVNYPDLLQCLVAPLLSHADCEASYPGQITNNMICAGFLEGGKDSCQGDSGGPVACNGQLQGIVSWGYGCAQKGKPGVYTKVCNYVDWIQETIAANS
B2: Serine protease 1 wild type, P00760 (protein)
chain: MKTFIFLALLGAAVAFPVDDDDKIVGGYTCGANTVPYQVSLNSGYHFCGGSLINSQWVVSAAHCYKSGIQVRLGEDNINVVEGNEQFISASKSIVHPSYNSNTLNNDIMLIKLKSAASLNSRVASISLPTSCASAGTQCLISGWGNTKSSGTSYPDVLKCLKAPILSDSSCKSAYPGQITSNMFCAGYLEGGKDSCQGDSGGPVVCSGKLQGIVSWGSGCAQKNKPGVYTKVCNYVSWIKQTIASN

Values joined by “and” are separate entries in the source; they are usually repeats but may differ in a detail not shown here. Identical values can stand only once.

The conditions of the first data set: Bos taurus; pH 5.8; 25 °C; GdnHCl; Fluorescence; MES 30 mM; CaCl2 20 mM; reversible: yes; whole UniProt chain shown.
As for B1, the denaturant m value was 5.74 kcal/mol/M, the “denaturant midpoint (higher = more stable)” value (“denaturant midpoint” for short) was found to be 2.19 M and the unfolding free energy worked out at 12.5 kcal/mol.

The data set is the same for the next values; noted with them: Bos taurus; pH 4.2; Thermal; Fluorescence; acetate 30 mM; reversible: yes; whole UniProt chain shown.
Regarding B2, the melting temperature (Tm) is 66 °C and 65 °C; the “heat capacity change of unfolding” value was 3.09 kcal/mol/K and 2.64 kcal/mol/K; the “unfolding enthalpy (van 't Hoff)” value was 150 kcal/mol and 164 kcal/mol.

Still in this data set, the particulars now being: Bos taurus; pH 7.5; 25 °C; GdnHCl; Fluorescence; Tris-HCl 0.1 M; CaCl2 20 mM; reversible: no; whole UniProt chain shown.
In the case of B2, the denaturant m value is 4.22 kcal/mol/M, the “denaturant midpoint” value came to 2.5 M and the unfolding free energy stood at 10.6 kcal/mol.

The data set is the same for the next values; noted with them: Bos taurus; pH 8.3; 25 °C; GdnHCl; Fluorescence; Tris-HCl 0.1 M; CaCl2 20 mM; reversible: no; whole UniProt chain shown.
Regarding B2, the denaturant m value was determined as 4.1 kcal/mol/M, the “denaturant midpoint” value came out at 2.27 M and the unfolding free energy is 9.3 kcal/mol.
